# Measured values taken from the DeepSol protein solubility set.
# Assay: soluble on expression in E. coli; label from the status in PepcDB or PDB records
row,Sequence,soluble on expression in E. coli
1,MSRTLTPLLDRVCEPQDLRAFPESDLARLADELRAETIDVVSVTGGHLGAGLGVIELTVALHYVFNTPEDRIIWDVGHQAYPHKILTGRREKIRTLRQEGGLSGFTKRSESVYDPFGAGHSSTSISAGLGMAVASALKAEKRRNIVAVIGDGAMSAGMAYEAMNNAGALNARLIVVLNDNDMSIAPPTGAMSAHLARLVSRPAYRSLRERVKVLGEKLPKFFLDKARRSEEFARGFLVGGTLFEELGFYYVGPIDGHNLKHLLPVLKNVREYPTGPVLIHVVTHKGKGYAPAEASLDKYHGVNRFDIITGKQVKASSNVLPYTKVFSKALREEASYDDKIVAITAAMPTGTGLDFFAEKFPERMFDVGIAEQHAVTFAAGMACEGYKPFVAIYSTFLQRAYDQIIHDVSIQKLPVRFAIDRAGFVGADGATHAGSFDIVFLTTLPEFVVMAPSDEVELMHMVRTAAAYDQGPISFRYPRGEGIGMDLPQRGEILEIGKGRILHEGNRIALVCFGTRISEVLVAADELSAEGLSTTVADARFAKPLDKDLMRRLAREHEVLVTIEEGAIGGFGAHLLQFLAQEGLLEHGLKVRTLKLPDEYLNHGSQEKVLSRIGLDAVGIVNTVFSALGRKIRTVQRVRV,not soluble
2,MSRYCSECGKARKACLCPSIVALESAVELIILQHPTEQKRPLGTARILSLSLANCRLLVGEDFREHDELNQLLAEPDVDYYVLYPNEHAQECTKISLTTARKTRVILLDGTWKKAYKMWQINTQLHDLPSLHLPDECVGHYRIRKAPDDTALSTVEAGYHLLQQWQPERDFSPLLKVFDAMIQYQIDQMPEGVFERNYRQLEHHHHHH,not soluble
3,MSSDIDELRREIDIVDVISEYLNLEKVGSNYRTNCPFHPDDTPSFYVSPSKQIFKCFGCGVGGDAIKFVSLYEDISYFEAALELAKRYGKKLDLEKISKDEKVYVALDRVCDFYRESLLKNREASEYVKSRGIDPKVARKFDLGYAPSSEALVKVLKENDLLEAYLETKNLLSPTKGVYRDLFLRRVVIPIKDPRGRVIGFGGRRIVEDKSPKYINSPDSRVFKKGENLFGLYEAKEYIKEEGFAILVEGYFDLLRLFSEGIRNVVAPLGTALTQNQANLLSKFTKKVYILYDGDDAGRKAMKSAIPLLLSAGVEVYPVYLPEGYDPDEFIKEFGKEELRRLINSSGELFETLIKTARENLEEKTREFRYYLGFISDGVRRFALASEFHTKYKVPMEILLMKIEKNSQEKEIKLSFKEKIFLKGLIELKPKIDLEVLNLSPELKELAVNALNGEEHLLPKEVLEYQVDNLEKLFNNILRDLQKSGKKRKKRGLKNVNT,soluble
4,MSSDPDKMMSKADKMTKLTLTRWSADWRGATELYEQAANGFRASNKYEKAKVALEKASKGQEMQASPWDAAKHMESAAALAQKLSIWNEVADFYRKASELYVECGRAQPASDALGKAARALEDVKPDDAIQLYTDACEILEEDGRDQMAFDLYRACANVYIKLEKFTDAATFFLRLGVAADKCDATNSQCKAYLSAIILYLYAHDLQQAEKCYNDCSQIDAFLKSDQSRSASRLLTAYNEGDIEEIKKVASASTVSNLDHMIIKLARKLPTGDVTAIQMNTNDDLDEDDLT,soluble
5,MSSEACTDPYLRCAFNGAALTALGISHSALLAHSPQGCEYLVNNAFASQECDYMETMTLCTKLCVDEIVHGGEDILARTIREVKDLPISALFVLSACGPEIVGDDIVGVCEALQPEVKFRLVPIESAGFRGSQYDGIDIAMDTILKKLVKDDVEKIPGSVCLEHHHHHH,not soluble
6,MSSEDFYRELKQRSLFEAIHLIEQELLKVESQIGTDALPKNEKLNLKVNASLGFENAQLVSTKPLGKDKLALETNLIGLTGEQGVLPQHYSELALHRLKEGDHAMVDFYDIFNHRLLSLYYRSWQLSQLTIQARAHAKNQRSPLTDCMSSLTGGGNDLALHYGGMYASPTRSKGALKSILECLSGCQIRIHEFQGQWMRLSKSEQTRLVSKSMPEGQFAQLGAGASLGKKAWNINASTTIEFLPKESKQVTNLLPKTNTLKTIKQVAGDFIGKHKHVKWQLTTKHSLLPQVQISKQQGQLGVGSVLKKHERTEDRNITITV,not soluble
7,MSSFLRPAVSGQDPFTTGNYRAISSHLAITPPVSVVIPAMNEAENLPYVFKSLPDWIHEVVLVDGNSTDGTVEVARELWPDVKVVEQRGKGKGDALITGFEACTGDIIVMVDADGSADGQEIVSYVSALVSGADFAKGSRFANGGGTSDMTPIRKLGNRVLCAAVNAKFGARYTDLCYGYNAFWRHCLDQIDLDCTGFEVETLMNIRVVKAGLKVQEIPSHEYLRIHGASNLRAVRDGLRVLKVILKERSNRRALRSRPHAMQLNSGQGEVSLEHHHHHH,soluble
8,MSSGVKASPHRFNRFEIKYLITEQDVPALREQLATRMSTDPLSPPGGYRVESLYFDSADLRCYTEKIEGLKFRRKLRIRTYGDGVLTPESTVSVEIKQRVNKVTQKRRLDLPFIYALALGDSTGAAVGEQVDVEKLLEISPENQHALIHEMASFAKNYRLRPIATTKYHREAFVGADAEESSRVTIDHGVSGRDRDFLLGQDLEDRPTVAQGLAVVEIKCDERVPFWLTDMTAQLEMSVIRMSKYCETIEAFHNRPASAFGAVDPIFLEHHHHHH,not soluble
9,MSSIRVVALDWRYEEILHALGITPVGIVEIGKSKEPQTLKGELEGVTSVGQAKQPNLEVIQSLEPDLILASPTRQAAIMDQLKEIAPTHAYGDTSYTEVLDAMDDIATKVGAEDKAKEVRTRIESKIAQAKNKVEPGTRTALIGWSKNTLYTWVKDSFAGSLLTAAGYEYGYDGEKSAIESKTDVAELTGDKLPEMKLDVMYLYNDIEGFRSSPYADVVSNIVDVEQDTWSRSRGPLAAEAMLDQIINSLEHHHHHH,soluble
10,MSSKPRHDWFQSETDVTLTILKRGVPLDDCSVSLSDNNTLTVKQCDEILFYGQLSGQVKKDDLTVKCTAAKVEVRLPKFARNERWASLLKDGQGVAASVQSVSPNPESAPTTTVKKNWDAIEKQAVKEEEDESLEGDAAVNKMFRKMYNDASDDVRRAMMKSYSESNGTVLSTNWSEIGQKKTECQPPACMEYKEYEK,not soluble
11,MSSLAKLGYFFDEKGVLKTEKDKKPFKFTTQEDYEELGEAVDLEVYELLETRCGLKRKALKLPGKTDEDEDLSFIFVSKNFKKAANLLVLIHGSGVVRAGQWARRLIINDNLECGTQIPYIERAIENGWGVVVMNTNLNESKDQDLKYSRTPVEHAETVWIACIEPSNAKSIYVVAHSRGGYDTASVLKKFGGDDRISKICLTDSPWFEFPKSCAQRARPLFVVNFLAHGALNSPSYKVREYREGNVAELWAGTQIHEWSSHCAIDAVFHILETEMTPSNYAEVMEEAKKLVVKSENSKESDDEAPKSKKICV,not soluble
12,MSSPSKRREMDMMKLMMSDYKVETINDGMQEFYVEFNGPKDSLYQGGVWKIRVELPDAYPYKSPSVGFITKIYHPNVDELSGSVCLDVINQTWSPMFDLVNVFETFLPQLLLYPNPSDPLNGEAAALMMRDRPAYEQRVKEYCEKYAKPGEGSEDKSSDEELSEEEYGSDNEDDDDDDVAIAGKPDP,not soluble
13,MSSQKSGIVVQSDETHILISSSHDIFVADPDQNTKLGDSVSFTTWDIANNLKRASDIKPRNQIVESVVYEQDQSLRLRLKILGFYDFTKSQQRVFRTDFITQVREGEKFKYLPKNAFFGRQITVKLTHQKNSIVWELDEFEEPKEKTYSLIGQIYYTDFSDAYVYVPGYPEPFVISKETNFSRSEEGTWVKFLACTATASVKKSEGFQFLEKDLLDTNRNREIAIKCSRKDGIIQSHHFEKVIDKDNRLADYGVLSDFENVLIYVKVSMEGVSKKPSLILGQFQTSFNVNPTLTRDQKEALDPPKRILKKQSSLPREGSSRKQVTQIQNLSRKIETGPRINFLPNFNNQDHGSEFFSDNEEMDLVPPLENSHLRVDPVPVPIEPSIQQNRTTTTAPISAPARRISSNESRRENPNSQPAPSKMQNVFREDPEAEYKRPERSNADNDETSSTISACSSKSRIVRENPDANYERPARRLPTPPLEANDNLEHQSHDSSSTDGLRDTSPVGNNTNPRSGSPSCHSDTHSSVSSSLWITTINSSKDLEFVKNEYIKLWIEDQASQKEMKNLKAKRIELKMKQKKLKAELNDEKMKNQKLEEAAFNDRKEKAELKKKVSNLEQSAQNTQRTLQNQTRELNLYSTNRSWLRKEFNSTNLLEHLRRNYHDLSKRLEQFAFN,not soluble
14,MSSQRWLWRNQHSVQTNIGSREKDLKITKTKKIKKKHERAYELLAEAAYSDPFAALGPFIDDGEGSLRVWMPGANKVELLVNGEPRVALERDGDSGFILKEQRDLHLTHYRLAVDWNGVEQIIDDPYQYHNIYQEYEHLHTPKDM,not soluble
15,MSSRKNFSRLTWFRKQRKAVVSSNDKKMPNGILEEQEQQRVMLLSRSPSGPKKFFPIPVEHLEEEIRVRSADDCKRFREEFNSLPSGHIQGTFELANKEENREKNRYPNILPNDHCRVILSQVDGIPCSDYINASYIDGYKEKNKFIAAQGPKQETVNDFWRMVWEQRSATIVMLTNLKERKEEKCYQYWPDQGCWTYGNIRVCVEDCVVLVDYTIRKFCIHPQLPDSCKAPRLVSQLHFTSWPDFGVPFTPIGMLKFLKKVKTLNPSHAGPIVVHCSAGVGRTGTFIVIDAMMDMIHSEQKVDVFEFVSRIRNQRPQMVQTDVQYTFIYQALLEYYLYGDTELDVSSLERHLQTLHSTATHFDKIGLEEEFRKLTNVRIMKENMRTGNLPANMKKARVIQIIPYDFNRVILSMKRGQEFTDYINASFIDGYRQKDYFMATQGPLAHTGEDFWRMVWEWKSHTIVMLTEVQEREQDKCYQYWPTEGSVTHGDITIEIKSDTLSEAISVRDFLVTFKQPLARQEEQVRMVRQFHFHGWPEVGIPAEGKGIIDLIAAVQKQQQQTGNHPITVHCSAGAGRTGTFIALSNILERVKAEGLLDVFQAVKSLRLQRPHMVQTLEQYEFCYKVVQDFIDIFSDYANFK,soluble
16,MSSRLDQLVNKYNKSCENVSFAEHMILKDKYESLVIEHESLIKTLELLEKTHGFTVEDLVTKQKEALEKKEVIEKWENKFGEMEKKLKTVERSIEYIMSVDVQTGVDSGSANRPNVKNSYQRGIF,not soluble
17,MSSSAPKYTTFQGSQNFRLRIVLATLSGKPIKIEKIRSGDLNPGLKDYEVSFLRLIESVTNGSVIEISYTGTTVIYRPGIIVGGASTHICPSSKPVGYFVEPMLYLAPFSKKKFSILFKGITASHNDAGIEAIKWGLMPVMEKFGVRECALHTLKRGSPPLGGGEVHLVVDSLIAQPITMHEIDRPIISSITGVAYSTRVSPSLVNRMIDGAKKVLKNLQCEVNITADVWRGENSGKSPGWGITLVAQSKQKGWSYFAEDIGDAGSIPEELGEKVACQLLEEISKSAAVGRNQLPLAIVYMVIGKEDIGRLRINKEQIDERFIILLRDIKKIFNTEVFLKPVDEADNEDMIATIKGIGFTNTSKKIA,not soluble
18,MSSSLQSNRQSLNRKVAVMGYPHVGKSALVLRFTQNIFPERYESTIEDQHSKHIAAFHRDYHLRVTDTAGQQEYTVFPRSCSLDINGFILVYAIDDRKSFEMCSNIYEKIVRTYGDTSIPIVIVGNKTDLSTQRVVRAEEGEELARQWDAKFVEITARESNRVHEVFELLLREIEISRGNLSPTERPNGNSPKRNPFKDDGKPCSIS,not soluble
